Measurements: article PMC7211019, “Par complex cluster formation mediated by phase separation” (Nature Communications, 2020)
Ends that are not written are not given here.

B1: FITC-labeled Par6β PBM peptide (peptide)
peptide: LEEDGTIITL
modifications: also: FITC label, position not given here
notes: source: synthetic peptide (Phtdpeptides)

What was measured:
Par3 PDZ3 = target: T1, Par3 PDZ3 (rat, UniProt Q9Z340 582-685); test: fluorescence polarisation; FITC-labeled peptide (~1 μM) titrated with Par3 PDZ domains, 25 °C, buffer A (50 mM Tris pH 8.0, 100 mM NaCl, 1 mM EDTA, 1 mM DTT); conditions: both partners purified
T1 construct: Par3, rat, third PDZ domain; Cloned into pGEX-6P-1 or a modified pET32a vector; also called rat Par3 PDZ3; source: E. coli BL21 (DE3) or Rosetta, purified (Ni2+-NTA, SEC)

[1] = target: B1; test: as above; conditions: both partners purified

T1 sequence (Q9Z340 582-685): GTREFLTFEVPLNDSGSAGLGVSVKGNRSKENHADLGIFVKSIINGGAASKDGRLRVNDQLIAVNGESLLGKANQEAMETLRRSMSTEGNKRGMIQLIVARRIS

Kd (Par3 PDZ3) [nM] | fold weakening against wild-type Par3 PDZ3 [1] [fold] | Binder
~1000 |  | B1
 | ~20 | Par3 PDZ3 G600,602 A (domain or fragment, rat, Par3, rat, third PDZ domain with G600A and G602A; source: E. coli BL21 (DE3) or Rosetta, purified (Ni2+-NTA, SEC)) GTREFLTFEVPLNDSGSAALAVSVKGNRSKENHADLGIFVKSIINGGAASKDGRLRVNDQLIAVNGESLLGKANQEAMETLRRSMSTEGNKRGMIQLIVARRIS
